Laboratory results reported in article PMC4508897.

Biological target: human wt Ecad-GFP (wild-type E-cadherin fused to EGFP) (human) (UniProt P12830)
Assay: TEM of gold nanoparticle

- percent of NPs at <15 nm from their nearest neighbour: 20.6%
Substance: human wt Ecad-GFP (wild-type E-cadherin fused to EGFP) (from UniProt P12830 23-882) (natural protein)
